B1: PNGase F, Peptide-N4-(acetyl-β-D-glucosaminyl)-asparagine amidase, wild type (D60) (protein)
chain: APADNTVNIKTFDKVKNAFGDGLSQSAEGTFTFPADVTTVKTIKMFIKNECPNKTCDEWDRYANVYVKNKTTGEWYEIGRFITPYWVGTEKLPRGLEIDVTDFKSLLSGNTELKIYTETWLAKGREYSVDFDIVYGTPDYKYSAVVPVIQYNKSSIDGVPYGKAHTLGLKKNIQLPTNTEKAYLRTTISGWGHAKPYDAGSRGCAEWCFRTHTIAINNANTFQHQLGALGCSANPINNQSPGNWAPDRAGWCPGMAVPTRIDVLNNSLTGSTFSYEYKFQSWTNNGTNGDAFYAISSFVIAKSNTPISAPVVTN
B2: PNGase F D60A mutant (enzyme)
chain: APADNTVNIKTFDKVKNAFGDGLSQSAEGTFTFPADVTTVKTIKMFIKNECPNKTCDEWARYANVYVKNKTTGEWYEIGRFITPYWVGTEKLPRGLEIDVTDFKSLLSGNTELKIYTETWLAKGREYSVDFDIVYGTPDYKYSAVVPVIQYNKSSIDGVPYGKAHTLGLKKNIQLPTNTEKAYLRTTISGWGHAKPYDAGSRGCAEWCFRTHTIAINNANTFQHQLGALGCSANPINNQSPGNWAPDRAGWCPGMAVPTRIDVLNNSLTGSTFSYEYKFQSWTNNGTNGDAFYAISSFVIAKSNTPISAPVVTN
B3: PNGase F E206A mutant (enzyme)
chain: APADNTVNIKTFDKVKNAFGDGLSQSAEGTFTFPADVTTVKTIKMFIKNECPNKTCDEWDRYANVYVKNKTTGEWYEIGRFITPYWVGTEKLPRGLEIDVTDFKSLLSGNTELKIYTETWLAKGREYSVDFDIVYGTPDYKYSAVVPVIQYNKSSIDGVPYGKAHTLGLKKNIQLPTNTEKAYLRTTISGWGHAKPYDAGSRGCAAWCFRTHTIAINNANTFQHQLGALGCSANPINNQSPGNWAPDRAGWCPGMAVPTRIDVLNNSLTGSTFSYEYKFQSWTNNGTNGDAFYAISSFVIAKSNTPISAPVVTN
B4: PNGase F D60N mutant (enzyme)
chain: APADNTVNIKTFDKVKNAFGDGLSQSAEGTFTFPADVTTVKTIKMFIKNECPNKTCDEWNRYANVYVKNKTTGEWYEIGRFITPYWVGTEKLPRGLEIDVTDFKSLLSGNTELKIYTETWLAKGREYSVDFDIVYGTPDYKYSAVVPVIQYNKSSIDGVPYGKAHTLGLKKNIQLPTNTEKAYLRTTISGWGHAKPYDAGSRGCAEWCFRTHTIAINNANTFQHQLGALGCSANPINNQSPGNWAPDRAGWCPGMAVPTRIDVLNNSLTGSTFSYEYKFQSWTNNGTNGDAFYAISSFVIAKSNTPISAPVVTN
B5: PNGase F D60A/E206A mutant (enzyme)
chain: APADNTVNIKTFDKVKNAFGDGLSQSAEGTFTFPADVTTVKTIKMFIKNECPNKTCDEWARYANVYVKNKTTGEWYEIGRFITPYWVGTEKLPRGLEIDVTDFKSLLSGNTELKIYTETWLAKGREYSVDFDIVYGTPDYKYSAVVPVIQYNKSSIDGVPYGKAHTLGLKKNIQLPTNTEKAYLRTTISGWGHAKPYDAGSRGCAAWCFRTHTIAINNANTFQHQLGALGCSANPINNQSPGNWAPDRAGWCPGMAVPTRIDVLNNSLTGSTFSYEYKFQSWTNNGTNGDAFYAISSFVIAKSNTPISAPVVTN
B6: PNGase F D60A/R125A mutant (enzyme)
chain: APADNTVNIKTFDKVKNAFGDGLSQSAEGTFTFPADVTTVKTIKMFIKNECPNKTCDEWARYANVYVKNKTTGEWYEIGRFITPYWVGTEKLPRGLEIDVTDFKSLLSGNTELKIYTETWLAKGAEYSVDFDIVYGTPDYKYSAVVPVIQYNKSSIDGVPYGKAHTLGLKKNIQLPTNTEKAYLRTTISGWGHAKPYDAGSRGCAEWCFRTHTIAINNANTFQHQLGALGCSANPINNQSPGNWAPDRAGWCPGMAVPTRIDVLNNSLTGSTFSYEYKFQSWTNNGTNGDAFYAISSFVIAKSNTPISAPVVTN
B7: PNGase F D60A/D57A mutant (enzyme)
chain: APADNTVNIKTFDKVKNAFGDGLSQSAEGTFTFPADVTTVKTIKMFIKNECPNKTCAEWARYANVYVKNKTTGEWYEIGRFITPYWVGTEKLPRGLEIDVTDFKSLLSGNTELKIYTETWLAKGREYSVDFDIVYGTPDYKYSAVVPVIQYNKSSIDGVPYGKAHTLGLKKNIQLPTNTEKAYLRTTISGWGHAKPYDAGSRGCAEWCFRTHTIAINNANTFQHQLGALGCSANPINNQSPGNWAPDRAGWCPGMAVPTRIDVLNNSLTGSTFSYEYKFQSWTNNGTNGDAFYAISSFVIAKSNTPISAPVVTN
B8: PNGase F D60A/E206Q mutant (enzyme)
chain: APADNTVNIKTFDKVKNAFGDGLSQSAEGTFTFPADVTTVKTIKMFIKNECPNKTCDEWARYANVYVKNKTTGEWYEIGRFITPYWVGTEKLPRGLEIDVTDFKSLLSGNTELKIYTETWLAKGREYSVDFDIVYGTPDYKYSAVVPVIQYNKSSIDGVPYGKAHTLGLKKNIQLPTNTEKAYLRTTISGWGHAKPYDAGSRGCAQWCFRTHTIAINNANTFQHQLGALGCSANPINNQSPGNWAPDRAGWCPGMAVPTRIDVLNNSLTGSTFSYEYKFQSWTNNGTNGDAFYAISSFVIAKSNTPISAPVVTN
B9: PNGase F D60A/E206R mutant (enzyme)
chain: APADNTVNIKTFDKVKNAFGDGLSQSAEGTFTFPADVTTVKTIKMFIKNECPNKTCDEWARYANVYVKNKTTGEWYEIGRFITPYWVGTEKLPRGLEIDVTDFKSLLSGNTELKIYTETWLAKGREYSVDFDIVYGTPDYKYSAVVPVIQYNKSSIDGVPYGKAHTLGLKKNIQLPTNTEKAYLRTTISGWGHAKPYDAGSRGCARWCFRTHTIAINNANTFQHQLGALGCSANPINNQSPGNWAPDRAGWCPGMAVPTRIDVLNNSLTGSTFSYEYKFQSWTNNGTNGDAFYAISSFVIAKSNTPISAPVVTN
B10: PNGase F D60A/E206K mutant (enzyme)
chain: APADNTVNIKTFDKVKNAFGDGLSQSAEGTFTFPADVTTVKTIKMFIKNECPNKTCDEWARYANVYVKNKTTGEWYEIGRFITPYWVGTEKLPRGLEIDVTDFKSLLSGNTELKIYTETWLAKGREYSVDFDIVYGTPDYKYSAVVPVIQYNKSSIDGVPYGKAHTLGLKKNIQLPTNTEKAYLRTTISGWGHAKPYDAGSRGCAKWCFRTHTIAINNANTFQHQLGALGCSANPINNQSPGNWAPDRAGWCPGMAVPTRIDVLNNSLTGSTFSYEYKFQSWTNNGTNGDAFYAISSFVIAKSNTPISAPVVTN

Target: T1, denatured glycoprotein RNase B, P61823
T1 chain: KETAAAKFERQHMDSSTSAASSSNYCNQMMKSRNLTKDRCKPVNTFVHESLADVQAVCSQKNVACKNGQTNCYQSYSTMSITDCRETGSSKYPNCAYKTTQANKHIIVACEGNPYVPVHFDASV
Assay: enzyme Km of the wild type, used as reference for the SPR Kd values
With B1 the Km (printed in the Kd column, footnote a) was 6.4 mM.

What follows are molecules tested against denatured glycoprotein RNase B (UniProt P61823) (assay: reference value of Table 7).
For “PNGase F, Peptide-N4-(acetyl-β-D-glucosaminyl)-asparagine amidase, wild type (D60) (from UniProt P21163 41-354) (enzyme)”, the Relative Enhancement (relative to wild type) was 1 fold.

These molecules were tested against T2, denatured glycoprotein RNase B (UniProt P61823 27-150, a single N-glycosylation site predominantly occupied by high mannose oligosaccharides; protein denatured) (assay: SPR Kd against wild type Km).
T2 construct: Recognition by the PNGase F mutants and by Con A goes through the N-linked glycan on the protein; also called denatured RNase B; dRNAse B
T2 sequence (looked up): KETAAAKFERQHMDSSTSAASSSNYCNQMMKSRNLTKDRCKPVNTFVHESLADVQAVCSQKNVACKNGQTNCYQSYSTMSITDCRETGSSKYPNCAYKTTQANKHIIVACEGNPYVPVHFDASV
B2 was tested, and the “Relative Enhancement (relative to wild type)” value (shortened to “Relative Enhancement”) was 580 fold. For B3, the “Relative Enhancement” value was 580 fold. For B4, the “Relative Enhancement” value was 290 fold. For B5, the “Relative Enhancement” value was 320 fold. With B6 the “Relative Enhancement” value was 360 fold. In the case of B7, the “Relative Enhancement” value is reported as 910 fold. For B8, the “Relative Enhancement” value was 360 fold. B9 was tested, and the “Relative Enhancement” value was 240 fold. B10 was tested, and the “Relative Enhancement” value was 360 fold.

From patent US20120040474A1 (published 2012)
